Laboratory results published in patent US10562935B2, “Stapled peptides and uses thereof” (London Health Sciences Centre Research Inc., priority 2015, dated 2020).
Where a SMILES comes first, the peptide text is derived from it. Bridges are numbered along the chain shown (N, C = ends). The star is where a group is joined. Biotin = O=C1N[C@H]2[C@H](CS[C@H]2CCCCC(=O)*)N1; AEEA = NCCOCCOCC(=O)O

Test: circular dichroism
Settings: Milli-Q water; pH ns; ns °C; 0.5 mM

Q: Which helicity does the source give for `CC(C)C[C@@H]1NC(=O)[C@H](CCC(N)=O)NC(=O)[C@H](CO)NC(=O)[C@@H](NC(=O)[C@H](CC(C)C)NC(=O)[C@H](CCCCN)NC(=O)[C@H](CO)NC(=O)[C@@H](N)C(C)C)CCC(=O)NCCCC[C@@H](C(=O)N[C@@H](CCCCN)C(=O)N[C@@H](CCCNC(=N)N)C(=O)N[C@@H](CCCCN)C(=O)N[C@@H](CCC(N)=O)C(=O)N[C@@H](CC(N)=O)C(N)=O)NC1=O` (H-VSKLESQLKKRKQN-NH2; lactam 5-9) here?
A: Its helicity is -4400 MRE222.

Q: Which helicity does the source give for `CC(C)[C@H](N)C(=O)N[C@@H](CO)C(=O)N[C@@H](CCCCN)C(=O)N[C@H]1CCC(=O)NCCCC[C@@H](C(=O)N[C@H](C(=O)N[C@@H](CCCCN)C(=O)N[C@@H](CCCNC(=N)N)C(=O)N[C@@H](CCCCN)C(=O)N[C@@H](CCC(N)=O)C(=O)N[C@@H](CC(N)=O)C(N)=O)C(C)C)NC(=O)[C@H](CCC(N)=O)NC(=O)[C@H](CO)NC(=O)[C@H](CCCNC(=N)N)NC1=O` (H-VSKERSQKVKRKQN-NH2; lactam 4-8) here?
A: The helicity was -2260 MRE222.

Same assay, conditions: water (methods paragraph says 0.1 M phosphate; tables say water); pH ns; 20 °C; 0.5 mM

Q: For Ac-VSKLRSQLVKRKQN-NH2, which helicity is on record?
A: Its helicity is -1100 MRE222.

Q: Which helicity does the source give for `CC(=O)N[C@H](C(=O)N[C@@H](CO)C(=O)N[C@@H](CCCCN)C(=O)N[C@@H](CC(C)C)C(=O)N[C@H]1CCC(=O)NCCCC[C@@H](C(=O)N[C@@H](CCCCN)C(=O)N[C@@H](CCCNC(=N)N)C(=O)N[C@@H](CCCCN)C(=O)N[C@@H](CCC(N)=O)C(=O)N[C@@H](CC(N)=O)C(N)=O)NC(=O)[C@H](CC(C)C)NC(=O)[C@H](CCC(N)=O)NC(=O)[C@H](CO)NC1=O)C(C)C` (Ac-VSKLESQLKKRKQN-NH2; lactam 5-9) here?
A: Its helicity is -6450 MRE222.

Q: For `CC(=O)N[C@H](C(=O)N[C@@H](CO)C(=O)N[C@@H](CCCCN)C(=O)N[C@@H](CC(C)C)C(=O)N[C@@H](CCCNC(=N)N)C(=O)N[C@H]1CCCCNC(=O)CC[C@@H](C(=O)N[C@@H](CCCNC(=N)N)C(=O)N[C@@H](CCCCN)C(=O)N[C@@H](CCC(N)=O)C(=O)N[C@@H](CC(N)=O)C(N)=O)NC(=O)[C@H](C(C)C)NC(=O)[C@H](CC(C)C)NC(=O)[C@H](CCC(N)=O)NC1=O)C(C)C` (Ac-VSKLRKQLVERKQN-NH2; lactam 6-10), which helicity is on record?
A: Its helicity is -1980 MRE222.

Q: For `CC(=O)N[C@@H](CC(N)=O)C(=O)N[C@@H](CC(C)C)C(=O)N[C@@H](CCCCN)C(=O)N[C@@H](CCC(N)=O)C(=O)N[C@@H](CCCCN)C(=O)N[C@H]1CCC(=O)NCCCC[C@@H](C(=O)N[C@@H](CCCCN)C(=O)N[C@@H](CC(C)C)C(=O)N[C@@H](CCCCN)C(=O)N[C@@H](CC(=O)O)C(=O)N[C@@H](CCC(=O)O)C(N)=O)NC(=O)[C@H](C(C)C)NC(=O)[C@H](Cc2c[nH]cn2)NC(=O)[C@H](CCCCN)NC1=O` (Ac-NLKQKEKHVKKLKDE-NH2; lactam 6-10), which helicity is on record?
A: The helicity was -2610 MRE222.

Q: For `CC(=O)N[C@H](C(=O)N[C@@H](CO)C(=O)N[C@@H](CCCCN)C(=O)N[C@@H](CC(C)C)C(=O)N[C@@H](CCCNC(=N)N)C(=O)N[C@H]1CCC(=O)NCCCC[C@@H](C(=O)N[C@@H](CCCNC(=N)N)C(=O)N[C@@H](CCCCN)C(=O)N[C@@H](CCC(N)=O)C(=O)N[C@@H](CC(N)=O)C(N)=O)NC(=O)[C@H](C(C)C)NC(=O)[C@H](CC(C)C)NC(=O)[C@H](CCC(N)=O)NC1=O)C(C)C` (Ac-VSKLREQLVKRKQN-NH2; lactam 6-10), which helicity is on record?
A: Its helicity is -4850 MRE222.

Q: For `CC[C@H](C)[C@@H]1NC(=O)[C@@H](NC(=O)[C@H](CCC(N)=O)NC(=O)[C@H](CCCCN)NC(=O)[C@H](CC(C)C)NC(=O)[C@H](CC(N)=O)NC(C)=O)CCC(=O)NCCCC[C@@H](C(=O)N[C@H](C(=O)N[C@@H](CCCCN)C(=O)N[C@@H](CC(C)C)C(=O)N[C@@H](CCCCN)C(=O)N[C@@H](CC(=O)O)C(=O)N[C@@H](CCC(=O)O)C(N)=O)C(C)C)NC(=O)[C@H](Cc2c[nH]cn2)NC(=O)[C@H](CCCCN)NC1=O` (Ac-NLKQEIKHKVKLKDE-NH2; lactam 5-9), which helicity is on record?
A: The helicity was -2830 MRE222.

Test: not given
Settings: biotinylated peptide, HA coated ELISA plate

Q: Which “peptide concentration required for equivalent interaction with HA” value does the source give for “Biotin-AEEA-(cyclo-6,10)-VSKLR[EQLVK]RKQN-NH2 [Compound 287]” here?
A: The value was 80 ng/mL.

Q: With “{Biotin-AEEA}-VSKLRSQLVKRKQN-NH2 [Compound 284]” as the molecule, how does the “peptide concentration required for equivalent interaction with HA” value read?
A: The value was 10000 ng/mL.
